Results on 1 protein are retold here after paper PMC9142589, “Automated vitrification of cryo-EM samples with controllable sample thickness using suction and real-time optical inspection” (Nature Communications, 2022).

The data set concerns the molecule itself. The data set can be described thus: cryo-EM structure; single particle analysis; apoferritin at 2.5 µM in 150 mM NaCl, 25 mM Tris pH 7.5, 2 mM DTT; 91,000 particles; X-ray model PDB 6RJH fitted into the map.

B1: Horse spleen apoferritin (natural protein)
chain: SQIRQNYSTEVEAAVNRLVNLYLRASYTYLSLGFYFDRDDVALEGVCHFFRELAEEKREGAERLLKMQNQRGGRALFQDLQKPSQDEWGTTLDAMKAAIVLEKSLNQALLDLHALGSAQADPHLCDFLESHFLDEEVKLIKKMGDHLTNIQRLVGSQAGLGEYLFERLTLK
notes: horse spleen apoferritin; the X-ray model of horse spleen apoferritin (PDB 6RJH) was fitted into the map; source: bought: Sigma (9013-31-4), purified by gel filtration (Superdex 200 Increase 3.2/300) immediately before vitrification
For B1, the binding result is “binds”.
